In this assay the target is human GPR49 (LGR5), on cells (human) (UniProt O75473). Nature of the assay: cell-based or functional assay.
UniProt O75473, sequence (O75473 22-907 limits assumed): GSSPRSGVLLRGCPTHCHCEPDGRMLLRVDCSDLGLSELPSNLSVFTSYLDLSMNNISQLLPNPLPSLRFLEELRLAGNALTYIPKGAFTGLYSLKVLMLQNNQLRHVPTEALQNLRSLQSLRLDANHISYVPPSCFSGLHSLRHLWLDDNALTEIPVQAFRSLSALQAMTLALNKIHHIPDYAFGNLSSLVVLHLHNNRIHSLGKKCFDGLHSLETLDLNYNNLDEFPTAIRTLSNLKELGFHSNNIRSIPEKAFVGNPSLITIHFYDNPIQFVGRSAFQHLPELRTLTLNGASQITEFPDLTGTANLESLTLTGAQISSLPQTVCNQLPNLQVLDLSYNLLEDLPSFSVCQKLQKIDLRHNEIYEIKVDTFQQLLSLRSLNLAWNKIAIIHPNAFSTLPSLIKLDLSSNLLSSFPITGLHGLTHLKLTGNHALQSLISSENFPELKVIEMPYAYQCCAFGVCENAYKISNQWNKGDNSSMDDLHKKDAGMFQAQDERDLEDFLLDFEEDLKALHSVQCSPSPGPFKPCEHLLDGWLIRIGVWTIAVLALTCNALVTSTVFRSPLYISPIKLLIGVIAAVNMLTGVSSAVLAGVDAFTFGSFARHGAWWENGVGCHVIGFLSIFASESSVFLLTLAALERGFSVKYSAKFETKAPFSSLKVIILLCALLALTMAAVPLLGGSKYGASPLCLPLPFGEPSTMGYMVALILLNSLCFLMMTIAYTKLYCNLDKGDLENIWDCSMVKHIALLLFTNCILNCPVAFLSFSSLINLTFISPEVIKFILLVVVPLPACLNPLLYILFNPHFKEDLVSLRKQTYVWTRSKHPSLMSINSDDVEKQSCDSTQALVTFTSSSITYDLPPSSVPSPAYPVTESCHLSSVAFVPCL

In turn, R-spondin 1 (ligand) registered an increase in proliferation of GPR49-3T3 clone 28 of 4 fold.

The values above are taken from patent US20140302049A1.
